Test: yeast display, Sf9 membrane polyspecificity reagent, FACS + sequencing; frameworks hold sequencing errors
Outline: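 Genes from sorted yeast were amplified by colony PCR, read by MiSeq 2 × 250 sequencing and filtered on CDR length. These cells carried a synthetic nanobody library in Saccharomyces cerevisiae BJ5465 and were sorted by FACS into low and high (top ~1%) gates on anti-HA and streptavidin fluorescence. Polyreactivity is labelled according to the gate of origin.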

Question: For “QVQILESGGGLVQAEGSIRLSCDASGRTFRPYAMGWSRQAPGKDRELVAVISYSGVSTYYADSVKGRFTISRDTEQNNVYLLLNSQIPEDTAVYYCLIRFRKTHYDYWGQGSQVTVSS”, which “polyreactivity (PSR sort gate)” value is on record?
Answer: high polyreactivity

Question: Which “polyreactivity (PSR sort gate)” value does the source give for “QVQIVDSGAVIVQAGGSLRLSCDASGRIILINAMGWYRQAPGKERELVAAITSSGGSTYYADSVKGRFTISRDNAKNTVYLQMNSLKPEDTAVYYCAAARYSRYDYWGQGTQVTVSS” here?
Answer: high polyreactivity

Question: For “QVQIVDSGGGLVQAGCSLRLSCAASGFTFFSYAMGWYRQAHWKERELVAAISRSGGRKYYADSVKGRFTISRDNAKNTVYLLMNSLKPEDTAVYYCAAETKTIPFEYWGQGTQVTVSS”, which “polyreactivity (PSR sort gate)” value is on record?
Answer: high polyreactivity

Question: For “QVQIVDSGGGLVQAGGSLRLSCAASGRIIRGYAMGWYRQAPGKERELVAAITFSGGSPYYADSVKGRFTISRDNAKNTVYLHMNSLKPEDTAVYYCAAAYGGSSYEYNYWGQGTQVTVSS”, which “polyreactivity (PSR sort gate)” value is on record?
Answer: low polyreactivity

Question: With “QVQIVDSGGGLVQAGGSLSLSCAASGSTIYRYAMGWYRQAPGKERELVAAITSAGSTNYADSVKGRFTISRDNAKNTVYLQMNSLKPEDTAVYYCAADHGRPYFSYDYWGQGTQVTVSS” as the sequence, how does the “polyreactivity (PSR sort gate)” value read?
Answer: low polyreactivity

Question: Which “polyreactivity (PSR sort gate)” value does the source give for “QVQIVESGAGLVQAGGSLSLSCAASGSIFHDNAMGWYRQAPGKERELVAAINRGGSRHYADSVKGRFTISRDNAKNTVYFQMNSLKPEDTAVYYCAADGIRPEVGYWGQGTQVTVSS” here?
Answer: low polyreactivity

Question: For “QVQIVESGGCLVQAGGSLRLICAASGNTFRWYDMGWYIQAPRKEREFVADITVRGGSTYYADSVKGRFTISRDNAKNTVYLQMNCLKPEDTAVYYCAVDFRRYPGFDYWGQGTQVTVSS”, which “polyreactivity (PSR sort gate)” value is on record?
Answer: low polyreactivity

Question: With “QVQIVESGGGIVQAGGSLRLSCAASGLTFHQYTMGWYRQAPGKERELVAAISSGGSTNYADSVKGRFTISRDNAKNTVFLQMNSLKPEDTAVYYCAADKYYFAYDYWGQGTQVNVSS” as the sequence, how does the “polyreactivity (PSR sort gate)” value read?
Answer: low polyreactivity

Question: With “QVQIVESGGGLDQAGGSLRLSCADSGSILYYYAMGCYRQAPGKETELVATITDSGDSTYYADSVKGRFTISRDNAKNTVYLQMNSLKPEDTAVYYCAAEGRYFYFTVKMDYWGQGTQVTVSS” as the sequence, how does the “polyreactivity (PSR sort gate)” value read?
Answer: low polyreactivity

Question: With “QVQIVESGGGLVQAGASLRLSCAASGSISKSYAMGWYRQAPGKERELVAAISWRGGSTYADSVKGRFTISRDNAENTVYSLMNSLKPEDTAVYYCAATNYGSFWGGQSERYDYWGQGTQVTVSS” as the sequence, how does the “polyreactivity (PSR sort gate)” value read?
Answer: low polyreactivity

Question: For “QVQIVESGGGLVQAGCILRLSCAASGSTFYVNAMGWYRQAPGKEWELVAVISTGGSTYYADSVKGRFTISRDNAKNTVYLQMNSLKPEDTAVYYCAKRDLPDCSGTPNVIPFDYWGQGTQVTVSS”, which “polyreactivity (PSR sort gate)” value is on record?
Answer: low polyreactivity

Question: Which “polyreactivity (PSR sort gate)” value does the source give for “QVQIVESGGGLVQAGGRLRLSCAASGFTLYRYAMGWYRQAPGKEREFVAAITRTGGTTYYADSVKGRFTISRDNAKNTVYLQMNSLKPEDTAVYYCAAGANAWYSYRYDYWGQGTQVTVSS” here?
Answer: high polyreactivity

Question: With “QVQIVESGGGLVQAGGRLRLSCAASGGIFKTYPMGWYRQAPGKERELVARINSRGGRTYYADSVKGRFTISRDYAKKTVYLQMNSLKPEATAVYYCAVRNPRYFNEYDYWGQGTQVTVSS” as the sequence, how does the “polyreactivity (PSR sort gate)” value read?
Answer: low polyreactivity

Question: For “QVQIVESGGGLVQAGGSLRFSCAASGRTFGTNTMGWYRQAPGKERELVATISSSSGSTYYADSVKGRFTISRDNAKNTVYLQMNSLKPEDTAVYYCAALSRWRYKRYDYWGQGTQVTVSS”, which “polyreactivity (PSR sort gate)” value is on record?
Answer: high polyreactivity

Question: With “QVQIVESGGGLVQAGGSLRISCAASGFTFRYYVMGWYRQAPGKEREFVAAISRSGGITYADSVKGRFTISRDNAKNTVYLQMNSLKPEDTAVYYCNAKSRTGYGRGDYWGQGTQVTVSS” as the sequence, how does the “polyreactivity (PSR sort gate)” value read?
Answer: high polyreactivity

Question: With “QVQIVESGGGLVQAGGSLRISCAASGFTFYPYTMGWYRQAPGKEREFVAAISWNCGSTYYADSVKGRFTISCDNAKNTVYLQMNSLKPEDSAVYYCAKRSYRSSARELDYWGQGTQVTVSS” as the sequence, how does the “polyreactivity (PSR sort gate)” value read?
Answer: low polyreactivity

Question: With “QVQIVESGGGLVQAGGSLRISCAASGRTFVYNTMGWSRQAPGKERELVAAITDRGTSTFYADSVKGRFTISRDNAKNTVDLQMNSLKPEDTAVYYCAKDWLVTEFDYWAQGTQVTVSS” as the sequence, how does the “polyreactivity (PSR sort gate)” value read?
Answer: low polyreactivity

Question: With “QVQIVESGGGLVQAGGSLRISCAASGRTLRYNTMGWSRKAPGKERELVAAISIRGGSTYYADSVKGRFTISRDNAKYTVYLQMISLKAEDTAVYYCNVVFQKAARIVEVDYWGQGTQVSVSS” as the sequence, how does the “polyreactivity (PSR sort gate)” value read?
Answer: high polyreactivity

Question: Which “polyreactivity (PSR sort gate)” value does the source give for “QVQIVESGGGLVQAGGSLRISCAPSGLIFAYYAMGRYRQAPGKERELVAAISSVGSTYYADSVKGRFTISRDNAKNTVYLQMNSLKPEDTAVYYCAAALYPYYWPEYNYWGQGTQVNVSS” here?
Answer: high polyreactivity

Question: Which “polyreactivity (PSR sort gate)” value does the source give for “QVQIVESGGGLVQAGGSLRLRCAASGLTFYVYVMGWYRQAPGKEREFVAAISYDGDSTYYADSVKGRFTISRDNAKNTVFFQMNSLIAEDTAVYYCNADRYPYWGYDYWGQGTQVTVSS” here?
Answer: low polyreactivity

Question: Which “polyreactivity (PSR sort gate)” value does the source give for “QVQIVESGGGLVQAGGSLRLRCAASGSIFSTYAMGWYRQEPGKERELVADISGRVGSTYYADSVKGRFTISRDNAKNTVYLQMNSLKPEDTAVYYCAAALDFWPGYEYYYWGQGTQVTVSS” here?
Answer: low polyreactivity

Question: For “QVQIVESGGGLVQAGGSLRLSCAASGFIFGIYDMGWYRQAPGKERELYADSVKGRFTISRDNAKNTVYLQMNSVKPEDTAVYYCNRAQGVHTYVYRYGYWGQGTQVTESS”, which “polyreactivity (PSR sort gate)” value is on record?
Answer: low polyreactivity

Question: For “QVQIVESGGGLVQAGGSLRLSCAASGFIFVFNAMGWYRQAPGKERELVAAINGGDITNYADSVKGRFTISRDNAKNTVYLQMNSLKPEDTAVYYCAADGEDSLWTGYDYDYWGQGNQVTVSS”, which “polyreactivity (PSR sort gate)” value is on record?
Answer: low polyreactivity

Question: For “QVQIVESGGGLVQAGGSLRLSCAASGFTFPHNAMGWYRQAPGKERELVAAITSSGGSTYYADSVKGRFTISRDNAKNPVYLEMNSLKPEDTAVYYCAAYWAYGGYESWGQGTQVTVSS”, which “polyreactivity (PSR sort gate)” value is on record?
Answer: high polyreactivity

Question: Which “polyreactivity (PSR sort gate)” value does the source give for “QVQIVESGGGLVQAGGSLRLSCAASGFTFVINDMGWYRQAPGKERELVADITSGGDTYYADSVKGRFTISRDNAKNTVYLQMNSLKPEDTAVYYCAADIYPDWIYLLYGYWGQGTQVTVSS” here?
Answer: low polyreactivity

Question: Which “polyreactivity (PSR sort gate)” value does the source give for “QVQIVESGGGLVQAGGSLRLSCAASGITFTVYAMGWYRQAPGKVRELVAAINSGSSTNYADSVKGRFTISRDNAKNTVYLQMNSLNPEDTAVYYCAASYRKLPDKKRYGYWGQGTQVTVSS” here?
Answer: high polyreactivity

Question: With “QVQIVESGGGLVQAGGSLRLSCAASGNTISYYDMGWYRQAPGKERELVADISSGGSTYYADSLKGRFTISRDNAKNTVYLQMNSLKPEDTAVYYCNAVVYIRGTAGTYYYWGQGTQVTVSS” as the sequence, how does the “polyreactivity (PSR sort gate)” value read?
Answer: high polyreactivity

Question: Which “polyreactivity (PSR sort gate)” value does the source give for “QVQIVESGGGLVQAGGSLRLSCAASGRIFGPYPMGWYRQAHVKERELVAAISCRGSSTYYADSVKGRFSISRDYAKNTVYLHMIILKPEDTAVFYCAKYPTYSYDYWGQGTQVTVSS” here?
Answer: high polyreactivity

Question: Which “polyreactivity (PSR sort gate)” value does the source give for “QVQIVESGGGLVQAGGSLRLSCAASGRIFGYNTMGWYRQAPGKERELVASISYYGGGPYYADSVKGRFTISRDLAKYTFYLQMNSLKPEDTAVYYCNALSYGYDDAYGYWGQGTQVTVSS” here?
Answer: low polyreactivity

Question: With “QVQIVESGGGLVQAGGSLRLSCAASGRIFRRYAMGWYRQAPGKEREFVAAISYGGGATYYADSVKGRFTISRDNAKNTFYLQMNSLKPEDTAVYYCNAEVPKSLLLYYPWGYGYWGQGTQVTVSS” as the sequence, how does the “polyreactivity (PSR sort gate)” value read?
Answer: low polyreactivity

Question: For “QVQIVESGGGLVQAGGSLRLSCAASGRIFRVNWIGWYRQAPGKESELVAAIRRSGGSTYYADSVKGRFTISRDNAKNTVYLQMNSLKPEDTAVYFCAAPVRQSSYTRYDSWGQGTQVTVSS”, which “polyreactivity (PSR sort gate)” value is on record?
Answer: high polyreactivity

Question: Which “polyreactivity (PSR sort gate)” value does the source give for “QVQIVESGGGLVQAGGSLRLSCAASGRIFVVIAMGWYRQAPGKERELVATITRGASTYADSVKGRFTISRDNAKNTVYLQMNSLKPEDTAVYYCAAAKRPQVVRYDWTKLEYWGQGTQVTVSS” here?
Answer: high polyreactivity

Question: With “QVQIVESGGGLVQAGGSLRLSCAASGRIYRYVMGWYRQAPGKERELVATITGSGGSTYYADSVKGRFTISRDNAKNTAYLQMNSLKPEDTAVYYCAAAGRGSWTTYRFDYWGLGTQVTVSS” as the sequence, how does the “polyreactivity (PSR sort gate)” value read?
Answer: high polyreactivity

Question: Which “polyreactivity (PSR sort gate)” value does the source give for “QVQIVESGGGLVQAGGSLRLSCAASGRNFGRYAMGWYRHAPRKERELVATISSGGSTYYADSVKGRFTISRDNAKNTVYLPMNSLKQEDTAVYYCAADYLSYYLYEGSIKYGYWGQGTQVSVSS” here?
Answer: high polyreactivity

Question: For “QVQIVESGGGLVQAGGSLRLSCAASGRTFLVNSMGWYRQAPGKEMELVAVITNGGSTYADSVKGRFTISRDNAKNTVYLQMNSLKPEDTAVYNCAARGNRWRSPSGSPYYYWGQGTQVTVSS”, which “polyreactivity (PSR sort gate)” value is on record?
Answer: high polyreactivity

Question: Which “polyreactivity (PSR sort gate)” value does the source give for “QVQIVESGGGLVQAGGSLRLSCAASGRTIGVYAMGWYRQAPRKERELVAAITGDGTKDYADSVKGRFRFSRAISKITVYLQMNSLKPEDTAVYYCAVGGAGSDDYWGQGTQVTVSS” here?
Answer: low polyreactivity

Question: With “QVQIVESGGGLVQAGGSLRLSCAASGRTYYYAMGWYRQAPGKERELVAAITESGDNTYYADSVKGRFTISRDNAKNTVYLQMNSLKPEDTAVYYCAVDYPSPSYYYEYYYWGQGTQVTVSS” as the sequence, how does the “polyreactivity (PSR sort gate)” value read?
Answer: high polyreactivity

Question: With “QVQIVESGGGLVQAGGSLRLSCAASGSIFGYYVMGWNRQAPGKERELVAAISSGGGNTYYADSVKGRFTISRDNAKNTVYLQMISLKPEDTAVYYCAALRSWRKTGGAQRYWYDYWGHGTQVTVSS” as the sequence, how does the “polyreactivity (PSR sort gate)” value read?
Answer: high polyreactivity

Question: Which “polyreactivity (PSR sort gate)” value does the source give for “QVQIVESGGGLVQAGGSLRLSCAASGSIFPHYAMGWYRQAPGKERELVAAISRGGSTNYADSVKGRFTISRDNAKNTVYLQMNSLKPEDTAVYYCNALRYYSRFLYAVAYRYDYWGQGTQVTVSS” here?
Answer: high polyreactivity

Question: With “QVQIVESGGGLVQAGGSLRLSCAASGSNFLFYVMGWYTQAPVKERELVAAINTGVSTNYADSVKGRFTISRDNAKNTVYLQLNSLKPEDTAVYYCNALPYTSDGRGGYWGQGSQVTVSS” as the sequence, how does the “polyreactivity (PSR sort gate)” value read?
Answer: low polyreactivity

Question: With “QVQIVESGGGLVQAGGSLRLSCAASGSTFGDNAMGWSRQAPGKERELVAAITRSGGSTYYADSVKGRFTISRDTAKNTVYLHMHSLKPEDTAVYYCNADWYFQYPYDYGGQGTQVTVSS” as the sequence, how does the “polyreactivity (PSR sort gate)” value read?
Answer: low polyreactivity

Question: Which “polyreactivity (PSR sort gate)” value does the source give for “QVQIVESGGGLVQAGGSLRLSCAASGSTFLKYTMGWYRQAPGKERELVAAISKSGGSTYYADSVKGRFTISRDNAKNTVYLQMNSLKPEDTAVYYCAIGRSWVSSYGYGYWGQGTQVTVSS” here?
Answer: high polyreactivity

Question: For “QVQIVESGGGLVQAGGSLRLSCAASGSTFNRNAMGWNRQATGKERELVAAITRSASSTYYADSVKGRFTISRDNAKNTVYLQMNSLKPEDTAVYYCAVEYVAYLYRMDYWGQGTQVTVSS”, which “polyreactivity (PSR sort gate)” value is on record?
Answer: high polyreactivity

Reference: the nanobody polyreactivity screen of Harvey et al. (2022)
